# Data published in patent US20080267971A1 (published 2008).
# Positions count from the first letter of the chain named.
# T1: Mouse/Human chimeric Ang-2 with the human StuI-TfiI fragment (mouse/human chimera, UniProt O35608 19-496)
# T1 construct: also called Stu-Tfil 310-400
# T1 chain: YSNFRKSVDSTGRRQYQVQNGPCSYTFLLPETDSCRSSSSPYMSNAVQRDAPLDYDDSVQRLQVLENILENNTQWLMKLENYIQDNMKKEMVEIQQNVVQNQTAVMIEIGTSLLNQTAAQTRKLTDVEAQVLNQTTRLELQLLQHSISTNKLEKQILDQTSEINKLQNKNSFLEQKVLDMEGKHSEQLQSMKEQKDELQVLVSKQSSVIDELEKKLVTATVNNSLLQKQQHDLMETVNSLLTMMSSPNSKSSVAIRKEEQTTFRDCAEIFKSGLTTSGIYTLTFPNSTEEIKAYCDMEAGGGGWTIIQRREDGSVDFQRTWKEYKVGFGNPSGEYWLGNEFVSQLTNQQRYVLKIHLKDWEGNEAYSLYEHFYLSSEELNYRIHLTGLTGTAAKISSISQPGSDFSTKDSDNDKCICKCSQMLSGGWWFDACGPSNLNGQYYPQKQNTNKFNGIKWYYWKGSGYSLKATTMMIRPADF
# T2: Human Ang-1/2 BsmI chimeric molecule (human)
# T2 chain: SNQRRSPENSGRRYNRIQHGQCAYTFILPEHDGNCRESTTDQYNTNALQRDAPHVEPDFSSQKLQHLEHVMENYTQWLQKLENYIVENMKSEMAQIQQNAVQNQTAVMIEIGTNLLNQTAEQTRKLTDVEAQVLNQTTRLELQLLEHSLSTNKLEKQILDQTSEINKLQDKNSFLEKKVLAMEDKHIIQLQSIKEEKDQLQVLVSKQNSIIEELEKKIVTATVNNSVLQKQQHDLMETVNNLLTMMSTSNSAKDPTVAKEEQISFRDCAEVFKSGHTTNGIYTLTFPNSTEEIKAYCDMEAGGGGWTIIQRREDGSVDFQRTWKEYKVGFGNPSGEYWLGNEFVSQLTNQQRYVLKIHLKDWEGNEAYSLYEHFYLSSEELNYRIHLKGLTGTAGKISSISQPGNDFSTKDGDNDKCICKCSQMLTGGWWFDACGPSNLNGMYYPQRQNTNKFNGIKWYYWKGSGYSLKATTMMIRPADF
# T3: human Ang-2 V345M (human, UniProt O15123 19-496)
# T3 sequence: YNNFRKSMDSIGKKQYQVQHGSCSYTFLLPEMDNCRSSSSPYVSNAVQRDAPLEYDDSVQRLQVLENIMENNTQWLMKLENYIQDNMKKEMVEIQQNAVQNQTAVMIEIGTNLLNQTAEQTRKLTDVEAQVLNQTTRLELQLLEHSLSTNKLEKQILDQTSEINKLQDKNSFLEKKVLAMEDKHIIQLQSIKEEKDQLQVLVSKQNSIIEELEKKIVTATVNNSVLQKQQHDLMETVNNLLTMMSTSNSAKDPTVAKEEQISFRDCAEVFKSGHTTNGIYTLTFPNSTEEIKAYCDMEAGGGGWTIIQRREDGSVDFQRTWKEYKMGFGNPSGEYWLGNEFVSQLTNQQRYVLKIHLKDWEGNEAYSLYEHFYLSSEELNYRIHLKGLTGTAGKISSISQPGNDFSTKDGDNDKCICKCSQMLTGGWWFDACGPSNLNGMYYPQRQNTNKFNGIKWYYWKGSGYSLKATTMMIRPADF
# T4: Mouse/Human Ang-2 StuI chimeric molecule (mouse; human, UniProt O35608 19-496)
# T4 construct: also called M/H Stul 310-496
# T4 chain: T1 chain with T386K, A393G, S403N, S410G, S424T, Q440M, K445R
# T5: human Ang-2 H375Q (human, UniProt O15123 19-496)
# T5 sequence: T3 sequence with M326V, H356Q
# B1: mAb 5.83.1 (antibody, V domains shown)
# VH: not shown
# VL: EIVMTQSPATLSVSPGERATLSCRASQSLISNLAWYQQKPGQAPRLLIFGASTRATGIPARFSGSGSGTEFTLTISSLQSEDFAVYYCHQYNNWWTFGQGTKVEIKR
# notes: Human hybridoma IgG (XenoMouse); also called x5.83
# B2: mAb 5.54.1 (antibody, V domains shown)
# VH: not shown
# VL: B1 VL with V85I
# notes: Human hybridoma IgG (XenoMouse); also called x5.54
# B3: mAb 5.101.1 (antibody, V domains shown)
# VH: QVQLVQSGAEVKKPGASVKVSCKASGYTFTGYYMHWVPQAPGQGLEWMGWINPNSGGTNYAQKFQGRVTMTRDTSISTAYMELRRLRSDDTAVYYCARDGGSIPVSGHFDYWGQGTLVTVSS
# VL: B1 VL
# notes: Human hybridoma IgG (XenoMouse); also called x5.101
# B4: mAb 3.19.3 (antibody, V domains shown)
# VH: QVQLVESGGGVVQPGRSLRLSCAASGFTFTNYGMHWGRQAPGKGLEWVAVISHDGNNKYYVDSVKGRFTISRDNSKNTLYLQMNSLRAEDTAVYYCAREGIDFWSGLNWFDPWGQGTLVTVSS
# VL: EIVLTQSPGTLSLSPGERATLSCRASQSITGSYLAWYQQKPGQAPRLLICGASSWATGIPDRFSGSGSGTDFTLTISRLEPEDFAVYYCQQYSSSPITFGQGTRLEIKR
# notes: Human hybridoma IgG (XenoMouse); also called x3.19
# B5: mAb 5.86.1 (antibody, V domains shown)
# VH: QVQLVQSGAEVKKPGASVKVSCKASGYTFTGYHMYWVRQAPGQGLEWLGWINPNSGGTNYAQKFQGRVTMTRDTSISTAYMELSRLRSDDTAVYYCVRDQGIAAAGPFDYWCQGTLVTVSS
# VL: DIRMTQSPSSLSASVGDRVTITCRASQRISTYLNWYQQKPGKAPKFLIYAASSLQSGVPSRFSGSGSGTDFTLTISSLQPEDFATYYCQQSYTTPFTFGPGTKVDIKR
# notes: Human hybridoma IgG (XenoMouse); also called x5.86
# B6: mAb 5.88.3 (antibody, V domains shown)
# VH: EVQMVESGGGLVQPGGSLRLSCAASGFTLRSYWMSWVRQAPGKGLEWVANIKEDGSEKYHVDSVKGRFTISRDNAENSLFLQMSSLRAEDTAVYYCARDMEASAGLFDYWGQGTLVTVSS
# VL: B1 VL with T20I, L29I, I30S, F49Y, H89Q, N93Y
# notes: Human hybridoma IgG (XenoMouse); also called x5.88
# B7: mAb 3.31.2 (antibody, V domains shown)
# VH: EVQLVESGGGLVQPGGSLRLSCAASGFTFSSYWMSWVRQAPGKGLEWVANIKQDGSDKYYVDSVKGRFTISRDNAKNSLYLRMNSLRAEDTAVFYCARDMGSGWFDYWGQGTLVTVSS
# VL: B1 VL with I2V, L29V, I30G, F49Y, Y87C, H89Q, N93H
# notes: Human hybridoma IgG (XenoMouse); also called x3.31
# B8: mAb 5.13.1 (antibody, V domains shown)
# VH: EVQLVESGGGLVQPGGSLRLSCAASGFTFSSYWMSWVRQAPGKGLEWVANIKQDGSEKYYVDSVKGRFTISRDNAKNSLYLQMNSLRAEDTAVYYCARDPGIAVAGPFDYWGQGTLVTVSS
# VL: B1 VL with L29V, I30S, F49Y, H89Q, N93H
# notes: Human hybridoma IgG (XenoMouse); also called x5.13
# B9: mAb 3.3.2 (antibody, V domains shown)
# VH: B8 VH with A24V, P100Q
# VL: B1 VL with S28T, L29V, I30S, N32D, F49Y, T53I, Y87S, H89Q, N92Y
# notes: Human hybridoma IgG (XenoMouse); also called 3.3.1; x3.3
# B10: mAb 5.62.1 (antibody, V domains shown)
# VH: B8 VH
# VL: B1 VL with L29V, I30S, F49Y, S52F, H89Q, N93H, E104G
# notes: Human hybridoma IgG (XenoMouse); also called x5.62
# B11: mAb 5.103.1 (antibody, V domains shown)
# VH: B5 VH with H33Y, M34L, R38P, L48M, N52S, V97A, G101V, A104V, C112A
# VL: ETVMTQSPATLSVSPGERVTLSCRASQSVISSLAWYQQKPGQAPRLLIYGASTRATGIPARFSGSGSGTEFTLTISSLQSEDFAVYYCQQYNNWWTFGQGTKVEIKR
# notes: Human hybridoma IgG (XenoMouse); also called 5.103.3; x5.103
# B12: mAb 5.28.1 (antibody, V domains shown)
# VH: EVQLVESGGIVVQPGGSLRLSCAASGFTFDDYTMHWVRQTPGKGLEWVSLISWDGGSTYYADSVKGRFTISRDNSKNSLYLQMNSLRTEDTALYYCAKDIDIAVAGTGFDHWGQGTLVTVSS
# VL: EIVMTQSPATLSVSPGERATLSCRASQSVTSNLAWYQQKPGQAPRLLIYGALIRATGIPARFSGSGSGTEFTLTISSLQSEDFAVYYCQQYNNWPFTFGPGTKVDIKR
# notes: Human hybridoma IgG (XenoMouse); also called x5.28
# B13: mAb 5.52.1 (antibody, V domains shown)
# VH: QVQLVESGGGVVQPGRSLRLSCAASGFTFSSYGMHWVRQAPGKGLEWVAVRWYDESNKYYADSVKGRFTISRDNSKNTLYLQMNSLRAEDTAVYYCARDPFETGTTFDYWGQGTLVTVSS
# VL: DIQMTQSPSSVSASVGDRVTITCRASQGISSWLAWYQQKPGKAPKLLIYAVSSLESGVPSRFSGSGSGTDFTLTISSLQPEDFATYYCQQALTFGGGTKVEIKR
# notes: Human hybridoma IgG (XenoMouse); the line 5.52 has entries of its own (347, 349; light chain L2) that differ from the clone 5.52.1 (L5); also called x5.52
# Tests used:
# Assay in all cases: ELISA
# [1] = molecular target: T1, Mouse/Human chimeric Ang-2 with the …
# [2] = molecular target: T2, Human Ang-1/2 BsmI chimeric molecule
# [3] = molecular target: T3, human Ang-2 V345M
# [4] = molecular target: T4, Mouse/Human Ang-2 StuI chimeric molecule
# [5] = molecular target: T5, human Ang-2 H375Q
Binder,% of binding to human Ang-2 [1] [%],% of binding to human Ang-2 [2] [%],% of binding to human Ang-2 [3] [%],% of binding to human Ang-2 [4] [%],% of binding to human Ang-2 [5] [%]
B1,86,100,100,100,100
B2,77,100,100,100,100
B3,28,100,100,100,100
B4,100,100,100,100,100
B5,23,100,100,100,100
B6,20,100,100,100,100
B7,,100,100,,100
B8,27,100,100,100,100
B9,15,100,100,100,100
B10,30,100,100,100,100
B11,,100,100,100,100
B12,100,100,100,100,100
B13,100,100,100,100,100
